In publication PMC6235402, “Paired Immunoglobulin-like Type 2 Receptor Alpha G78R variant alters ligand binding and confers protection to Alzheimer's disease” (PLoS Genetics, 2018):
Read-outs that look alike come from different tables or passages of the source.

Legend:
[1] = molecular target: PILRA Q140A, full length (human) (UniProt Q9UKJ1); assay: flow cytometry on cells; 293T cells transfected with full-length PILRA variants, 48 h; incubated with soluble NPDC1-mFc at 50 ug/ml for 30 min on ice; anti-PILRA (APC) and anti-mouse IgG2a (FITC); percent of double-positive cells relative to G78 PILRA (100%)
Sequence of PILRA Q140A, full length (human) (Q9UKJ1 20-303 Q140A): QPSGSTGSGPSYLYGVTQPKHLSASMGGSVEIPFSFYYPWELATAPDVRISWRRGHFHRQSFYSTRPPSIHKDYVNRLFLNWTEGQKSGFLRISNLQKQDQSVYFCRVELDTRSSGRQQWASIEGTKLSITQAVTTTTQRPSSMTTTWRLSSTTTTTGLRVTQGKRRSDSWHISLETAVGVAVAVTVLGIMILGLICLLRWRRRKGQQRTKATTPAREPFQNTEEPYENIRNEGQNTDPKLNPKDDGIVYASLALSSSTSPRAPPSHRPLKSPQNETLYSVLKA

[2] = molecular target: PILRA R78 (AD protective) variant, G78R (rs1859788), full length (human) (UniProt Q9UKJ1); assay: as above
Sequence of PILRA R78 (AD protective) variant, G78R (rs1859788), full length (human) (Q9UKJ1 20-303, stated change not applied): as the sequence (Q9UKJ1 20-303 Q140A) above, with A121Q counted along it

[3] = molecular target: PILRA S141A, full length (human) (UniProt Q9UKJ1); assay: as above
Sequence of PILRA S141A, full length (human) (Q9UKJ1 20-303 S141A): as the sequence (Q9UKJ1 20-303 Q140A) above, with A121Q, S122A counted along it

[4] = molecular target: PILRA S80G, full length (human) (UniProt Q9UKJ1); assay: as above
Sequence of PILRA S80G, full length (human) (Q9UKJ1 20-303 S80G): as the sequence (Q9UKJ1 20-303 Q140A) above, with S61G, A121Q counted along it

[5] = molecular target: PILRA R78 (AD protective) variant, G78R (rs1859788), full length (human) (UniProt Q9UKJ1); assay: as above; remark: listed apart in the source
[6] = molecular target: PILRA F76A, full length (human) (UniProt Q9UKJ1); assay: as above
Sequence of PILRA F76A, full length (human) (Q9UKJ1 20-303 F76A): as the sequence (Q9UKJ1 20-303 Q140A) above, with F57A, A121Q counted along it

[7] = molecular target: PILRA R72A, full length (human) (UniProt Q9UKJ1); assay: as above
Sequence of PILRA R72A, full length (human) (Q9UKJ1 20-303 R72A): as the sequence (Q9UKJ1 20-303 Q140A) above, with R53A, A121Q counted along it

[8] = molecular target: T1, PILRA G78 (AD risk) extracellular domain (1-196 aa) fused to murine IgG2a Fc (human, UniProt Q9UKJ1 20-196, R78G (by the check's mend)); assay: SPR; NPDC1-His binding to mIgG2a-tagged PILRA variants (S6C Fig); who was immobilised and the conditions not given; settings: both partners purified
T1 construct: signal peptide in the construct; PILRA, human, ECD residues 1-196 of AJ400841, glycine at position 78; also called G78 PILRA-mFc; PILRA-mFC; not shown: Fc (murine IgG2a), C-terminal, kept
T1 sequence (Q9UKJ1 20-196 R78G): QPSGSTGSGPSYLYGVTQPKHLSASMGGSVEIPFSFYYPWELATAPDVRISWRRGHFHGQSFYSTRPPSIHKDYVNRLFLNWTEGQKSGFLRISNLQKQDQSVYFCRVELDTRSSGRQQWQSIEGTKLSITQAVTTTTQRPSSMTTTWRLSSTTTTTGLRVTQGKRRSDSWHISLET

[9] = molecular target: PILRA R78 (AD protective, G78R) extracellular domain (1-196 aa) fused to murine IgG2a Fc (human) (UniProt Q9UKJ1); assay: as above

B1: NPDC1 extracellular domain (1-190 aa) fused to murine IgG2a Fc (Fc fusion)
chain: GHPDVAACPGSLDCALKRRARCPPGAHACGPCLQPFQEDQQGLCVPRMRRPPGGGRPQPRLEDEIDFLAQELARKESGHSTPPLPKDRQRLPEPATLGFSARGQGLELGLPSTPGTPTPTPHTSLGSPVSSDPVHMSPLEPRGGQGDGLALVLILA
- percent of G78 PILRA binding [1]: 22 % of G78
- percent of G78 PILRA binding [2]: 44 % of G78
- percent of G78 PILRA binding [3]: 117 % of G78
- percent of G78 PILRA binding [4]: 60 % of G78
- percent of G78 PILRA binding [5]: 35 % of G78
- percent of G78 PILRA binding [6]: 20 % of G78
- percent of G78 PILRA binding [7]: 20 % of G78

B2: NPDC1-His (ligand, human, UniProt Q9NQX5 35-190, looked up)
chain: B1 chain
notes: the construct and its limits are not described in the methods; Likely a soluble extracellular construct
- Kd [8]: 16.8 nM
- kon [8]: 22000 M⁻¹ s⁻¹
- Kd [9]: 76.5 nM
- kon [9]: 6800 M⁻¹ s⁻¹
